The target of assay [1] is T1, human Ang-2 (human, UniProt O15123 19-496, limits assumed).
T1 construct: Sources differ by assay: R&D Systems 623-AN (mixture of 2 truncated versions) for initial screening; also called hAng-2; huAng-2
T1 sequence (looked up): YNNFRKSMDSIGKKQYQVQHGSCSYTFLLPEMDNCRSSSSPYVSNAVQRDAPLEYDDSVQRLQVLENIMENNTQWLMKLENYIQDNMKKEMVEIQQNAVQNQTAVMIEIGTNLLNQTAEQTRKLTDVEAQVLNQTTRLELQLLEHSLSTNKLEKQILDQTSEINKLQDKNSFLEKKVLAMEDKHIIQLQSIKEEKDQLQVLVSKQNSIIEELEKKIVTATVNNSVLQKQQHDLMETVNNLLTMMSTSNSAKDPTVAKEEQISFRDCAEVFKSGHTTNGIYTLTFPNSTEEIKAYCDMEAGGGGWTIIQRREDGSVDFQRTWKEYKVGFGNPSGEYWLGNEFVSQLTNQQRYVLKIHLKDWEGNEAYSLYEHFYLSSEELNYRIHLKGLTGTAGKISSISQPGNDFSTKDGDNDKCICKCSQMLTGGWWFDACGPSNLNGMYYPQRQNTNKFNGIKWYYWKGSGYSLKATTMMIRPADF
The assay is described as follows: phage display selection and phage ELISA on Ang-2. The protocol:
Three filamentous phage libraries, designated as “TN8-IX” (5×10⁹ independent transformants), “TN12-I” (1.4×10⁹ independent transformants), and “Linear” (2.3×10⁹ independent transformants) (all from Dyax Corp.), were used to select for Ang-2 binding phage. […] For all three libraries, the phage from the first round of selection were eluted only in a non-specific manner for further rounds of selection.
An XL-1 Blue MRF′ culture was grown until OD₆₀₀ reached about 0.5. About thirty μl of this culture was aliquoted into each well of a 96-well microtiter plate. About 10 μl of eluted phage (section 4) was added to each well and allowed to infect bacteria for about 15 minutes at room temperature. About 100 μL of LB media containing approximately 12.5 μg/ml of tetracycline and approximately 50 μg/ml of ampicillin were added to each well. The microtiter plate was then incubated with shaking overnight at about 37° C. The recombinant Ang-2 protein (about 1 μg/ml in PBS) was allowed to bind to the 96 well Maxisorp plates (NUNC) overnight at about 4° C. As a control, the pure streptavidin was coated onto a separate Maxisorp plate at about 2 μg/ml in PBS.
On the following day, liquid in the protein coated Maxisorp plates was discarded, and each well was blocked with about 300 μl of 5% milk solution at about 4° C. overnight (alternatively, 1 hour at room temperature). The milk solution was then discarded, and the wells were washed three times with the PBST solution. After the last washing step, about 50 μl of PBST-4% milk was added to each well of the protein coated Maxisorp plates.
(ELISA stands for enzyme-linked immunosorbent assay.)

Assay [2] concerns the target T1, human Ang-2. As to the kind of experiment: neutralization ELISA vs Tie-2-Fc.

This note sets out measurements from patent US20090054323A1 (published 2009).

Where no end group is shown, it is not given here.

B1: L1 (peptide)
peptide: KFNPLDELEETLYEQFTFQQ
notes: Peptide from phage display selection on Ang-2
With B1, the binding result with human Ang-2 [1] is given as “binds”.

B2: L1-7 Peptide (peptide)
peptide: CGGGGGAQTNFMPMDDLEQRLYEQFILQQGLE
notes: Synthetic peptide with N-terminal Cys and 5Gly linker; also called L1-7(unPEGylated Peptide); L1-7 free peptide
Usually IC50 stands for the midpoint of a concentration-inhibition curve. With B2, the midpoint of inhibition with human Ang-2 [2], the IC50, lay at 0.49 nM.

B3: TN8-Con1 (peptide)
peptide: KRPCEEIFGGCTYQ
Turning to B3, in the assay with human Ang-2 [1], the binding result is given as “binds”.

B4: PEO4(L1-7 Peptide)2 (peptide)
peptide: C(1,11‑bis‑maleimidotetraethyleneglycol)GGGGGAQTNFMPMDDLEQRLYEQFILQQGLE
modifications: also: two peptides joined through Cys1 by 1,11-bis-maleimidotetraethyleneglycol, one on each end
Molecule B4 returned a half-inhibitory concentration (IC50) with human Ang-2 [2] of 0.064 nM.

B5: mPEG5K-(L1-7 Peptide) (peptide)
peptide: C(methoxy‑poly(ethylene glycol)‑maleimide 5 kDa)GGGGGAQTNFMPMDDLEQRLYEQFILQQGLE
In turn, B5 displayed an IC50 in the assay with human Ang-2 [2] of 11.7 nM.

B6: PEG3.4K(L1-7 Peptide)2 (peptide)
peptide: C(poly(ethylene glycol)‑bis‑maleimide 3.4 kDa)GGGGGAQTNFMPMDDLEQRLYEQFILQQGLE
modifications: also: two peptides joined through Cys1 by PEG-bis-maleimide 3.4 kDa, one on each end
In turn, B6 yielded an IC50 with human Ang-2 [2] of 0.058 nM. This IC50 is about 200-fold lower than that of the molecule before.

B7: TN8-Con4 (peptide)
peptide: QEECEWDPWTCEHM
In the case of B7, the binding result with human Ang-2 [1] was “binds”.

B8: TN8-14 (peptide)
peptide: HQICKWDPWTCKHW
notes: as for B1
For the molecule B8, the binding result in the assay with human Ang-2 [1] is recorded as “binds”.

B9: TN12-9 (peptide)
peptide: FDYCEGVEDPFTFGCDNH
notes: as for B1
On to B9, for which the binding result in the assay with human Ang-2 [1] is reported as “binds”.

B10: TN8-8 (peptide)
peptide: KRPCEEMWGGCNYD
notes: as for B1
B10: the binding result in the assay with human Ang-2 [1] is “binds”.

B11: C17 (peptide)
peptide: QYGCDGFLYGCMIN
notes: as for B1
For B11, in the assay with human Ang-2 [1], the binding result is “binds”.
